{"source": "paper PMC6167328", "about": "“Elucidating a role for the cytoplasmic domain in the Mycobacterium tuberculosis mechanosensitive channel of large conductance” (Scientific Reports, 2018)", "proteins": {"B1": {"name": "C-terminal domain truncation of the Mycobacterium tuberculosis mechanosensitive channel of large conductance (MtMscLΔC) (domain or fragment)", "chain": "MLKGFKEFLARGNIVDLAVAVVIGTAFTALVTKFTDSIITPLINRIGVNAQSDVGILRIGIGGGQTIDLNVLLSAAINFFLIAFAVYFLVVLPYNTLRKKG", "notes": "Residues 97-101 are not resolved in the model; also called Mt ∆C"}}, "target": "the molecule itself", "assay": "crystal structure", "data": [{"protein": "B1", "values": [{"measurement": "stoichiometry N", "result": 5}]}]}
